This assay deals with S. pombe respiratory complex IV (cytochrome c oxidase), affinity purified through a C-terminal twin-strep tag on subunit Cox5 (S. pombe) (UniProt P07657). Description: pull-down + SEC; membranes solubilised in 1% GDN; StrepTactin column through Cox5-2xstrep, then Superose 6 Increase in 25 mM KH2PO4 pH 8.0, 150 mM KCl, 0.01% GDN; peaks analysed by reduced minus oxidized difference spectra.
UniProt P07657, sequence (P07657 whole entry, looked up, tested part not stated, one chain of several): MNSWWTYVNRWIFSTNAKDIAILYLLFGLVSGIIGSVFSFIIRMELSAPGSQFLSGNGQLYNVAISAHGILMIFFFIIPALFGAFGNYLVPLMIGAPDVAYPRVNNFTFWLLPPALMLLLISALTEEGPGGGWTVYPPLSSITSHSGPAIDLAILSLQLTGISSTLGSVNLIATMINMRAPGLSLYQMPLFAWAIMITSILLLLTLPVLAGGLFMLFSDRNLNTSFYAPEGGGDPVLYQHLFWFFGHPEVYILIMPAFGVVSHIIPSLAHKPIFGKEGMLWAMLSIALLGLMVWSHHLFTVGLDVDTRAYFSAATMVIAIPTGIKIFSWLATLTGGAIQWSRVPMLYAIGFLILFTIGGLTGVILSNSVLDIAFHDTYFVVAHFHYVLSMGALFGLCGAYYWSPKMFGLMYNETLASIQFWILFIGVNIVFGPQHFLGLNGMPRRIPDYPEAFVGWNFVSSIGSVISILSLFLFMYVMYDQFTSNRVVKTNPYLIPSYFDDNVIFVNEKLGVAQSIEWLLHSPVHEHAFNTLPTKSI

The term stoichiometry N denotes the number of molecules, sites or subunits per partner or assembly. Regarding “S. pombe respiratory complex III (cyt. bc1 complex)”, the stoichiometry N is 2 CIII:CIV.

For the origin of these results see article PMC9935853.
